The target of series [1] is T1, Spo11 wild type (core complex subunit);Ski8;Rec102;Rec104 (Saccharomyces cerevisiae;Saccharomyces …, UniProt P23179;Q02793;Q02721;P33323 1-398;1-397;1-264;1-182, |||). Nature of the series: FeBABE footprinting.
For series [2], the target named is T1, Spo11 wild type (core complex …). Nature of the series: FeBABE footprinting. The source holds these as a separate data set.

Where two headings read alike, the source gives them in different places.

Data on two molecules can be found in PMC7855791.

T1 sequence (P23179 whole entry, chain 1 of 4): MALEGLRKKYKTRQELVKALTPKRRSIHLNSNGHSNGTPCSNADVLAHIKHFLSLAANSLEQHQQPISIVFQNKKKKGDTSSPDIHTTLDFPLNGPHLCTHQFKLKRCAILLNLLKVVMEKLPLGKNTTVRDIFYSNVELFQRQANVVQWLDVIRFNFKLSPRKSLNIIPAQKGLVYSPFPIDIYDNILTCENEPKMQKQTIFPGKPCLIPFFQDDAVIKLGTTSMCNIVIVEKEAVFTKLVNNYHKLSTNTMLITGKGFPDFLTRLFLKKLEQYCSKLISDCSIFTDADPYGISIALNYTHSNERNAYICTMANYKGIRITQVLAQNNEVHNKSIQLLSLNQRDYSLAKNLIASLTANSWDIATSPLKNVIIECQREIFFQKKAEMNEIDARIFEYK
T1 sequence (Q02793 whole entry, chain 2 of 4): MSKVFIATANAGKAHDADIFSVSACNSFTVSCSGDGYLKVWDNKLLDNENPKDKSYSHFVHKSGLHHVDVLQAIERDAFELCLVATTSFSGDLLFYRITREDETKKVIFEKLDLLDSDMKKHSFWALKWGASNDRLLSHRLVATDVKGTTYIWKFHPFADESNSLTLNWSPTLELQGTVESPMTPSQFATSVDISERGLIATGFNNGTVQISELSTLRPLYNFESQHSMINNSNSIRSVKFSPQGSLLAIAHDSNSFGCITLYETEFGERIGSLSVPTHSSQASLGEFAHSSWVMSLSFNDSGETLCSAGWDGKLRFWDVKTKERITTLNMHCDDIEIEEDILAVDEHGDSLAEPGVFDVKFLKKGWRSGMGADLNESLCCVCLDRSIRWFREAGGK
T1 sequence (Q02721 whole entry, chain 3 of 4): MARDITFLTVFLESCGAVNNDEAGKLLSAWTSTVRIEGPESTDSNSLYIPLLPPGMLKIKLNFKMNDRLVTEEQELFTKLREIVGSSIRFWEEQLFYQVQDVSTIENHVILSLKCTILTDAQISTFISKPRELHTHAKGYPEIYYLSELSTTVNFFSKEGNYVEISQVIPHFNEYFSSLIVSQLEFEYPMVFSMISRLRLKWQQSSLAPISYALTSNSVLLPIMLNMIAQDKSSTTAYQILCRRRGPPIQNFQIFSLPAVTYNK
T1 sequence (P33323 whole entry, chain 4 of 4): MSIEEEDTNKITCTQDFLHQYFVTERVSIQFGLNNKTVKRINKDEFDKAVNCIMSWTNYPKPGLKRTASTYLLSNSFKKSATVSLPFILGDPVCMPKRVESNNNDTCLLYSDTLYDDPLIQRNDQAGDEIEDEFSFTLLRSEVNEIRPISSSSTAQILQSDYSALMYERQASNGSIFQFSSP

B1: 5'-TA-proximal FeBABE probe (cb958/cb961) (dsDNA)
DNA 1: TAGCAATGTAATCGTCTATGACGTT
DNA 2: AACGTCATAGACGATTACATTGC
modifications: 5 phosphorothioates with FeBABE on strand 2 (after nt 13,15,17,19,21)
For B1, the binding result in series [1] is listed as “binds”.

B2: 5'-TA-distal FeBABE probe (cb958/cb960) (dsDNA)
DNA 1: TAGCAATGTAATCGTCTATGACGTT
DNA 2: AACGTCATAGACGATTACATTGC
modifications: 5 phosphorothioates with FeBABE on strand 2 (after nt 2,4,6,8,10)
As for B2, in series [2], the binding result is recorded as “binds”.
